Test results: patent US8409836B2, “Treatment of cellulosic material and enzymes useful therein” (Roal Oy, priority 2005, dated 2013)

How the values were obtained:
Type in all cases: biochemical
[1] = Hydrolysis with CBH enzyme mixtures, spruce; details: additional enzymes EGII, bG; 48 h, 45° C., pH 5.0
Method: (§1) The performance of the purified recombinant cellobiohydrolases was evaluated in the hydrolysis studies with purified T. reesei enzymes. Hydrolysis was carried out with controlled mixtures of purified enzymes on several pre-treated substrates. […] In addition, pure T. reesei cellulases (purified as described by Suurnäkki et al., 2000) were used in the enzyme mixtures. The cellobiohydrolases used in the experiment were:
(§2) Each CBH/Cel7 to be tested (dosage 14.5 mg/g dry matter of substrate) was used either together with EGII/Cel5A of T. reesei (3.6 mg/g) or with a mixture containing T. reesei EGI/Cel7B (1.8 mg/g), EGII/Cel5A (1.8 mg/g), xylanase pI 9 (Tenkanen et al. 1992) (5000 nkat/g) and acetyl xylan esterase (AXE) (Sundberg and Poutanen, 1991) (250 nkat/g). All mixtures were supplemented with additional β-glucosidase from a commercial enzyme preparation Novozym 188 (176 nkat/g d.w.). Triplicate tubes containing the enzyme mixture and 10 mg (dry matter)/ml of the substrate suspended in 0.05 M sodium acetate were incubated in mixing by magnetic stirring at 45° C. for 48 h. Reference samples with inactivated enzymes and corresponding substrates were also prepared. The release of hydrolysis products was measured as reducing sugars with DNS method using glucose as standard (Table 30).
Washed steam pre-treated spruce fibre (impregnation with 3% w/w SO2 for 20 min, followed by steam pre-treatment at 215° C. for 5 min), dry matter 25.9% (SPRUCE).

[2] = Hydrolysis with CBH enzyme mixtures, corn stover; details: additional enzymes EGII, bG, 48 h, 45° C., pH 5.0
Method: as §1, §2
Washed wet oxidized corn stover fibre (WOCS).

[3] = Hydrolysis with CBH enzyme mixtures, Avicel; details: additional enzymes EGII, bG; 48 h, 45° C., pH 5.0
Method: as §1, §2
Crystalline cellulose (Avicel)

[4] = Specific activity against Avicel; details: 50° C., pH 5.0, 24 h, 1% substrate, 0.25 μM enzyme
Method: (§3) The specific activity of the preparations was determined using 4-methylumbelliferyl-β-D-lactoside (MUL), 4-methylumbelliferyl-β-D-cellobioside (MUG2) or 4-methylumbelliferyl-β-D-cellotrioside (MUG3) as substrate (van Tilbeurgh et al., 1988) in 0.05 M sodium citrate buffer pH 5 at 50° C. for 10 min. Endoglucanase and xylanase activities were determined by standard procedures (according to IUPAC, 1987) using carboxymethyl cellulose (CMC) and birch glucuronoxylan (Bailey et al., 1992) as substrates. Specific activity against Avicel was calculated on the basis of reducing sugars formed in a 24 h reaction at 50° C., pH 5.0, with 1% substrate and 0.25 μM enzyme dosage. The protein content of the purified enzyme preparations was measured according to Lowry et al., 1951. To characterize the end products of hydrolysis, soluble sugars liberated in 24 h hydrolysis experiment, as described above, were analysed by HPLC (Dionex). Purified cellobiohydrolase I (CBHI/Cel7A) of Trichoderma reesei was used as a reference.

Specific activity on MUL = details: purified cellobiohydrolases, 50° C., pH 5.0
Method: as §3

[5] = Hydrolysis with CBH enzyme mixtures, willow; details: additional enzymes EGII, bG, 48 h, 45° C., pH 5.0
Method: as §1, §2
Washed steam pre-treated willow fibre (pre-treatment for 14 min at 210° C.), dry matter 23.0% (WILLOW).

[6] = Specific activity on MUG3; details: purified cellobiohydrolases, 50° C., pH 5.0
Method: as §3

[7] = Endoglucanase activity on carboxymethyl cellulose; details: purified cellobiohydrolases, 50° C., pH 5.0
Method: as §3
(§4) Acremonium thermophilum ALKO4245 was grown as described in Example 1. The culture supernatant was incubated at 70° C. for 24 hours after which it was concentrated by ultrafiltration. The pure endoglucanase was obtained by sequential purification with hydrophobic interaction and cation exchange chromatography followed by gel filtration. The endoglucanase activity of the fractions collected during purification was determined using carboxymethyl cellulose (CMC) as substrate (procedure of IUPAC 1987). Protein content was measured by BioRad Assay Kit (Bio-Rad Laboratories) using bovine serum albumine as standard.
as §4, with “Thermoascus aurantiacus ALKO4242 was” for “Acremonium thermophilum ALKO4245 was”, “1.” for “1. The culture supernatant was incubated at 70° C. for 24 hours after which it was concentrated by ultrafiltration.”, “and anion” for “and cation”

[8] = pH optimum of recombinant CBH/Cel7 proteins; details: McIlvaine buffer, pH range 3.0-8.0, MUL, 50° C., 10 min
Method: The recombinant CBH/Cel7 enzyme preparations were characterized in terms of pH optimum and thermal stability. The pH optimum of the recombinant CBH/Cel7 proteins from Thermoascus aurantiacus, Chaetomium thermophilum, and Acremonium thermophilum were determined in the universal McIlvaine buffer within a pH range of 3.0-8.0 using 4-methylumbelliferyl-β-D-lactoside (MUL) as a substrate (FIG. 3A). The pH optimum for Ct Cel7A and At Cel7A enzymes is at 5.5, above which the activity starts to gradually drop. The pH optimum of the recombinant crude Ta Cel7A is at 5.0 (FIG. 3A). Thermal stability of the recombinant Cel7 enzymes was determined by measuring the MUL activity in universal McIlvaine buffer at the optimum pH with reaction time of 1 h.

[9] = Thermal stability of purified cellobiohydrolases; details: 0.1% BSA, pH 5.0, 60 min, MUL substrate
Method: Thermal stability of the purified cellobiohydrolases was determined at different temperatures. The reaction was performed in the presence of 0.1% BSA at pH 5.0 for 60 min using 4-methylumbelliferyl-β-D-lactoside as substrate. C. thermophilum ALKO4265 CBH/Cel7A and A. thermophilum ALKO4245 CBH/Cel7A were stable up to 65° and 60° C., respectively. The T. reesei reference enzyme (CBHI/Cel7A) retained 100% of activity up to 55° C.

[10] = Xylanase activity on birch xylan; details: purified cellobiohydrolases, 50° C., pH 5.0
Method: as §3
Acremonium thermophilum ALKO4245 was grown as described in Example 1. The culture supernatant was incubated at 70° C. for 24 hours after which, it was concentrated by ultrafiltration. The pure xylanase was obtained by sequential purification with hydrophobic interaction and cation exchange chromatography followed by gel filtration. The xylanase activity was determined using birch xylan as substrate (procedure of IUPAC 1987). Protein was assayed by BioRad Protein Assay Kit (Bio-Rad Laboratories) using bovine serum albumin as standard.
Thermoascus aurantiacus ALKO4242 was grown as described in Example 1. The pure xylanase was obtained by sequential purification with hydrophobic interaction, anion, and cation exchange chromatography followed by gel filtration. The xylanase activity was determined using birch xylan as substrate (procedure of IUPAC 1987). Protein was assayed by BioRad Protein Assay Kit (Bio-Rad Laboratories) using bovine serum albumin as standard.

[11] = Specific activity on MUG2; details: purified cellobiohydrolases, 50° C., pH 5.0
Method: as §3

Molecule | Hydrolysis products as reducing sugars, SPRUCE [1] | Hydrolysis products as reducing sugars, WOCS ([2]; EGI, XYL, AXE) | Hydrolysis products as reducing sugars, WOCS [2] | Hydrolysis products as reducing sugars, Avicel [3] | Specific activity, Avicel [4] | Specific activity, MUL (Specific activity on MUL) | Hydrolysis products as reducing sugars, WILLOW ([5]; EGI, XYL, AXE) | Hydrolysis products as reducing sugars, WILLOW [5] | Specific activity, MUG3 [6] | Specific activity, CMC [7] | pH optimum [8] | Thermal stability: temperature up to which stable / 100% of activity retained [9] | Specific activity, Xylan [10] | Specific activity, MUG2 [11]
Ct Cel7A: cellobiohydrolase of Chaetomium thermophilum ALKO4265, gene Ct cel7A, amino acid SEQ ID NO: 8, with CBD (protein) MMYKKFAALAALVAGASAQQACSLTAENHPSLTWKRCTSGGSCSTVNGAVTIDANWRWTHTVSGSTNCYTGNQWDTSLCTDGKSCAQTCCVDGADYSSTYGITTSGDSLNLKFVTKHQYGTNVGSRVYLMENDTKYQMFELLGNEFTFDVDVSNLGCGLNGALYFVSMDADGGMSKYSGNKAGAKYGTGYCDAQCPRDLKFINGEANVGNWTPSTNDANAGFGRYGSCCSEMDVWEANNMATAFTPHPCTTVGQSRCEADTCGGTYSSDRYAGVCDPDGCDFNAYRQGDKTFYGKGMTVDTNKKMTVVTQFHKNSAGVLSEIKRFYVQDGKIIANAESKIPGNPGNSITQEYCDAQKVAFSNTDDFNRKGGMAQMSKALAGPMVLVMSVWDDHYANMLWLDSTYPIDQAGAPGAERGACPTTSGVPAEIEAQVPNSNVIFSNIRFGPIGSTVPGLDGSNPGNPTTTVVPPASTSTSRPTSSTSSPVSTPTGQPGGCTTQKWGQCGGIGYTGCTNCVAGTTCTQLNPWYSQCL | 2.6 mg/mL | 5.6 mg/mL | 3.4 mg/mL | 6.0 mg/mL | 1.4 nkat/mg | 54.0 nkat/mg | 4.0 mg/mL | 2.6 mg/mL | 1.5 nkat/mg | 5.5 nkat/mg | 5.5 | up to 65 °C | 6.7 nkat/mg | 18.9 nkat/mg
Tr Cel7A: purified cellobiohydrolase I (CBHI/Cel7A) of Trichoderma reesei used as a reference (protein, UniProt P62694 18-513, looked up) Exoglucanase 1: QSACTLQSETHPPLTWQKCSSGGTCTQQTGSVVIDANWRWTHATNSSTNCYDGNTWSSTLCPDNETCAKNCCLDGAAYASTYGVTTSGNSLSIGFVTQSAQKNVGARLYLMASDTTYQEFTLLGNEFSFDVDVSQLPCGLNGALYFVSMDADGGVSKYPTNTAGAKYGTGYCDSQCPRDLKFINGQANVEGWEPSSNNANTGIGGHGSCCSEMDIWEANSISEALTPHPCTTVGQEICEGDGCGGTYSDNRYGGTCDPDGCDWNPYRLGNTSFYGPGSSFTLDTTKKLTVVTQFETSGAINRYYVQNGVTFQQPNAELGSYSGNELNDDYCTAEEAEFGGSSFSDKGGLTQFKKATSGGMVLVMSLWDDYYANMLWLDSTYPTNETSSTPGAVRGSCSTSSGVPAQVESQSPNAKVTFSNIKFGPIGSTGNPSGGNPPGGNRGTTTTRRPATTTGSSPGPTQSHYGQCGGIGYSGPTVCASGTTCQVLNPYYSQCL | 2.9 mg/mL | 6.0 mg/mL | 2.9 mg/mL | 4.7 mg/mL | 0.6 nkat/mg | 21.9 nkat/mg | 4.1 mg/mL | 2.9 mg/mL | 0.9 nkat/mg | 1.0 nkat/mg | – | up to 55 °C | 1.3 nkat/mg | 4.3 nkat/mg
